Measured values published in PMC3681702.
Where two headings read alike, the source gives them in different places. Each block holds one substance with its values, some of them ahead of it.

How the values were obtained:
[1] = target: p75 C257A/G266I mutant tagged with mEGFP (human) (UniProt P08138); assay: non-reducing SDS-PAGE of immunoprecipitated protein
[2] = target: p75 G247C mutant tagged with mEGFP (human) (UniProt P08138); assay: as above
[3] = target: p75 G247C/Δ250 mutant tagged with mEGFP (human); assay: as above
[4] = target: p75 Δ193/C257A/G266I mutant tagged with mEGFP (human); assay: number and brightness
[5] = target: wild-type neurotrophin receptor p75 tagged with mEGFP (p75-EGFP) (human) (UniProt P08138); assay: number and brightness
[6] = target: wild-type neurotrophin receptor p75 tagged with mEGFP (p75-EGFP) (human) (UniProt P08138); assay: photon-counting histogram
[7] = target: wild-type neurotrophin receptor p75 tagged with mEGFP (p75-EGFP) (human) (UniProt P08138); assay: non-reducing SDS-PAGE of immunoprecipitated protein
[8] = target: wild-type neurotrophin receptor p75 tagged with mEGFP (p75-EGFP) (human) (UniProt P08138); assay: as above; remark: listed apart in the source

Substance: p75 C257A/G266I mutant tagged with mEGFP (from UniProt P08138 29-427) (receptor)
- percent recovered as dimer [1]: 0.8%

Substance: p75 Δ193/C257A/G266I mutant tagged with mEGFP (receptor)
- stoichiometry N (molecules per oligomer) [4]: 2.9

Substance: wild-type neurotrophin receptor p75 tagged with mEGFP (p75-EGFP) (from UniProt P08138 29-427)
- average brightness normalised to EGFP, center of the TGN [5]: 6.9 x EGFP
- average brightness normalised to EGFP, periphery of the TGN [5]: 10.4 x EGFP
- stoichiometry N (molecules per oligomer) [5]: 8.8
- median brightness normalised to EGFP [6]: 1.71 x EGFP
- stoichiometry N [6]: 3
- stoichiometry N (EGFP molecules per complex) [6]: 1 to 5
- percent recovered as dimer [7]: 6.9%
- percent recovered as dimer [8]: 5.8%

Results, then the substance that gave them:

- percent recovered as dimer [2]: 29%
Substance: p75 G247C mutant tagged with mEGFP (from UniProt P08138 29-427) (receptor)

- percent recovered as dimer [3]: 56%
Substance: p75 G247C/Δ250 mutant tagged with mEGFP (receptor)
